# B1: Azoarcus group I ribozyme (parent)
# chain: GUGCCUUGCGCCGGGAAACCACGCAAGGGAUGGUGUCAAAUUCGGCGAAACCUAAGCGCCCGCCCGGGCGUAUGGCAACGCCGAGCCAAGCUUCGGCGCCUGCGCCGAUGAAGGUGUAGAGACUAGACGGCACCCACCUAAGGCAAACGCUAUGGUGAAGGCAUAGUCCAGGGAGUGGCGAAAGUCACACAAACCGG
# Variants of: B1
# Assay: reverse-splicing fitness (ratio to wild type); higher = more active; in vitro selection; Mg2+ level not given
# Outline: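 An in vitro group I ribozyme library with randomized positions was T7-transcribed and gel-purified. In triplicate, 10 pmol RNA in EPPS pH 7.5 was reacted with 50 pmoles of a 30-nt RNA substrate for 1 h at 37 °C across several added MgCl2 levels (1–48 mM), then stopped with EDTA. Products were reverse transcribed from a substrate-complementary primer, PCR-amplified and sequenced (HiSeq 4000). Fitness is a variant's read proportion after selection over that before, normalised to wild type.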
row,Variant,reverse-splicing fitness
1,A111C A120G C169A U176G,0.00418
2,A111C A120G C169A U176C,0.0306
3,A111C A120G C169A U176A,0.0221
4,A111C A120G A145U C150U C169U U176G,0.00595
5,A111C A120G A145U C150U C169U U176A,0.034
6,A111C A120G A145U C150U C169U U176C,0.0353
7,A111C A120C C150G C169G,0.00757
8,A111C A120C C150G C169U,0.02
9,A111C A120C C150G C169A,0.00914
10,A111C A120G C150A C169U U176G,0.0056
11,A111C A120G C150A C169U U176C,0.024
12,A111C A120G C150A C169U U176A,0.0211
13,A111C A120G A145U C150G C169U U176A,0.0111
14,A111C A120G A145U C150G C169U U176G,0.00442
15,A111C A120G A145U C150G C169U U176C,0.0151
16,A111C A120G A145C C169A U176C,0.0169
17,A111C A120G A145C C169A U176G,0.00362
18,A111C A120G A145C C169A U176A,0.0154
19,A111C A120G A145G C150A C169A U176A,0.0174
20,A111C A120G A145G C150A C169A U176C,0.022
21,A111C A120G A145G C150A C169A U176G,0.0058

row,Variant,reverse-splicing fitness
1,A111C A120G A145C C150G C169U U176G,0.004
2,A111C A120G A145C C150G C169U U176A,0.0111
3,A111C A120G A145C C150G C169U U176C,0.013
4,A111C A120C C150A U176A,0.0343
5,A111C A120C C150A U176C,0.0495
6,A111C A120C C150A U176G,0.0118
7,A111C A120G A145C C150U U176A,0.0163
8,A111C A120G A145C C150U U176C,0.0189
9,A111C A120G A145C C150U U176G,0.00427
10,A111C A120C C150U C169U,0.113
11,A111C A120C C150U C169G,0.00843
12,A111C A120C C150U C169A,0.0123
13,A111C A120G A145G C150G C169G U176A,0.0101
14,A111C A120G A145G C150G C169G U176G,0.00543
15,A111C A120G A145G C150G C169G U176C,0.0114
16,A111C A120G A145C C150A C169U,0.0139
17,A111C A120G A145C C150A C169A,0.0103
18,A111C A120G A145C C150A C169G,0.0149
19,A111C A120G A145G C169G U176A,0.036
20,A111C A120G A145G C169G U176G,0.00512
21,A111C A120G A145G C169G U176C,0.0552

row,Variant,reverse-splicing fitness
1,A111C A120G A145U C150A U176A,0.0126
2,A111C A120G A145U C150A U176C,0.0176
3,A111C A120G A145U C150A U176G,0.0043
4,A111C A120C U176A,0.186
5,A111C A120C U176G,0.0393
6,A111C A120C U176C,0.204
7,A111C A120G C150U C169G,0.112
8,A111C A120G C150U C169A,0.0604
9,A111C A120G C150U C169U,0.0919
10,A111C A120G C150G U176A,0.0109
11,A111C A120G C150G U176G,0.00348
12,A111C A120G C150G U176C,0.0173
13,A111C A120G A145C U176A,0.0323
14,A111C A120G A145C U176G,0.00548
15,A111C A120G A145C U176C,0.0361
16,A111C A120G A145C C150G C169G U176C,0.00609
17,A111C A120G A145C C150G C169G U176A,0.00954
18,A111C A120G A145C C150G C169G U176G,0.00434
19,A111C A120G A145C C150U C169U U176C,0.0192
20,A111C A120G A145C C150U C169U U176G,0.00528
21,A111C A120G A145C C150U C169U U176A,0.0247

row,Variant,reverse-splicing fitness
1,A111C A120C C169U,0.183
2,A111C A120C C169G,0.00921
3,A111C A120C C169A,0.0116
4,A111C A120G A145G C150U,0.139
5,A111C A120G A145G C150G,0.0228
6,A111C A120G A145G C150A,0.0307
7,A111C A120G C150G C169G U176G,0.00457
8,A111C A120G C150G C169G U176C,0.00473
9,A111C A120G C150G C169G U176A,0.0066
10,A111C A120G A145U U176G,0.00568
11,A111C A120G A145U U176A,0.0392
12,A111C A120G A145U U176C,0.0406
13,A111C A120G C150U C169A U176G,0.00513
14,A111C A120G C150U C169A U176A,0.0176
15,A111C A120G C150U C169A U176C,0.0197
16,A111C A120G A145G C150A U176G,0.0068
17,A111C A120G A145G C150A U176A,0.0132
18,A111C A120G A145G C150A U176C,0.0252
19,A111C A120C C150U C169A U176C,0.0142
20,A111C A120C C150U C169A U176A,0.0172
21,A111C A120C C150U C169A U176G,0.00561
